From patent EP3010938

T1: rat FcRn (rat, UniProt P13599)
T1 chain 1: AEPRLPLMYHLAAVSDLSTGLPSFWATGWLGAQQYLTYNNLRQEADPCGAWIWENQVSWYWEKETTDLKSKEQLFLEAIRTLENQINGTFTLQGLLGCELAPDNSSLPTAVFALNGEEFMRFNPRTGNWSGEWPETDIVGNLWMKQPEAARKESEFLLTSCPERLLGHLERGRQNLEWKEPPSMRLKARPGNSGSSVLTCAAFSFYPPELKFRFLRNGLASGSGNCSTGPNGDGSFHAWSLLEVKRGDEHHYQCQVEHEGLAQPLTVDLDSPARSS
T1 chain 2: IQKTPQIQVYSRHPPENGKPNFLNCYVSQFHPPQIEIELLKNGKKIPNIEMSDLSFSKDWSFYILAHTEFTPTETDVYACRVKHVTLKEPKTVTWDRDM

T2: mouse FcRn (mouse, UniProt Q61559)
T2 chain 1: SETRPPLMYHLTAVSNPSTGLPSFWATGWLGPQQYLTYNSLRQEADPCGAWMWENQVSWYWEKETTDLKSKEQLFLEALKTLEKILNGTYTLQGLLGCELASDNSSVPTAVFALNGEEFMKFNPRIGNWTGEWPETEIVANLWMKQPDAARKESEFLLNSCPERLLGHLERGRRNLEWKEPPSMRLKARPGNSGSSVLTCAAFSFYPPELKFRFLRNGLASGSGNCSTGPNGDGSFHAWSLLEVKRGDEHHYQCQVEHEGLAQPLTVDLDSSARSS
T2 chain 2: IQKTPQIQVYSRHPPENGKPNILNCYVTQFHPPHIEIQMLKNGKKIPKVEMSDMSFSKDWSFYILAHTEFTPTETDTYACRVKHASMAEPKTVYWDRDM


Legend:
shFcRn [1] = biological target: T3, shFcRn (human, UniProt P55899); assay: SPR pH 6.0
shFcRn [2] = biological target: T3, shFcRn; assay: SPR pH 7.4
shFcRn [3] = biological target: T3, shFcRn; assay: SPR pH 6.0; remark: listed apart in the source
shFcRn [4] = biological target: T3, shFcRn; assay: SPR pH 7.4; remark: listed apart in the source
rat FcRn = biological target: T1, rat FcRn; assay: FACS pH 7.4
mouse FcRn = biological target: T2, mouse FcRn; assay: FACS pH 6.0
shFcRn [5] = biological target: T3, shFcRn; assay: SPR pH 7.4; remark: listed apart in the source
shFcRn [6] = biological target: T3, shFcRn; assay: SPR pH 6.0; remark: listed apart in the source

Row | Binder | koff (shFcRn [1]) | koff (shFcRn [2]) | Kd (shFcRn [3]) | also measured
1 | A12-H04 (antibody) chain 1: EVQLVESGGGLVQPGRSLRLSCAASGFTFDEYGMHWVRQAPGKGLEWVSGVSWNSGSIAYADSVRGRFTISRDNAKNSLYLQMNSLRAEDTALYYCAKGRLLDVWGQGTTVTVSS chain 2: QSALTQPASVSGSPGQSITISCTGSSSDVGGYNYVSWYQQHPGKAPKLMIYDVTKRPSGVSNRFSGSKSGNTASLTISGLQAEDEADYYGAYSNTNFYVFGTGTKVTVL | 0.00022 s⁻¹ | 0.00235 s⁻¹ | – | –
2 | A11-G06 (antibody) chain 1: EVQLVESGGGLVQPGRSLRLSCAASGFTFDEYGMHWVRQAPGKGLEWVSGVSWNSGSIAYADSVRGRFTISRDNAKNSLYLQMNSLRAEDTALYYCAKGRLMDVWGQGTTVTVSS chain 2: QSALTQPASVSGSPGQSITISCTGSSSDVGGYNYVSWYQQHPGKAPKLMIYDVTKRPSGVSNRFSGSKSGNTASLTISGLQAEDEADYYGSYNNNTFYVFGTGTKVTVL | 0.000225 s⁻¹ | 0.000496 s⁻¹ | – | –
3 | A12-E05 (antibody) chain 1: EVQLVESGGGLVQPGRSLRLSCAASGFTFDEYGMHWVRQAPGKGLEWVSGVSWNSGSIAYADSVRGRFTISRDNAKNSLYLQMNSLRAEDTALYYCAKGRILDVWGQGTTVTVSS chain 2: QSALTQPASVSGSPGQSITISCTGSSSDVGGYNYVSWYQQHPGKAPKLMIYDVTKRPSGVSNRFSGSKSGNTASLTISGLQAEDEADYYGSYNNSTFYVFGTGTKVTVL | 0.000216 s⁻¹ | 0.00222 s⁻¹ | – | –
4 | A12-F02 (antibody) chain 1: EVQLVESGGGLVQPGRSLRLSCAASGFTFDEYGMHWVRQAPGKGLEWVSGVSWNSGSIAYADSVRGRFTISRDNAKNSLYLQMNSLRAEDTALYYCAKGRYLDVWGQGTTVTVSS chain 2: QSALTQPASVSGSPGQSITISCTGSSSDVGGYNYVSWYQQHPGKAPKLMIYDVTKRPSGVSNRFSGSKSGNTASLTISGLQAEDEADYYGSYDSNTFYVFGTGTKVTVL | 0.000305 s⁻¹ | 0.000225 s⁻¹ | – | –
5 | 1Ag (antibody) chain 1: EVQLVESGGGLVQPGRSLRLSCAASGFTFDEYGMHWVRQAPGKGLEWVSGVSWNSGSIAYADSVRGRFTISRDNAKNSLYLQMNSLRAEDTALYYCAKGRSMDVWGQGTTVTVSS chain 2: QSALTQPASVSGSPGQSITISCTGSSSDVGGYNYVSWYQQHPGKAPKLMIYDVTKRPSGVSNRFSGSKSGNTASLTISGLQAEDEADYYCSSYSSSTFYVFGTGTKVTVL | 0.000222 s⁻¹ | 0.000212 s⁻¹ | – | –
6 | A12-E04 (antibody) chain 1: EVQLVESGGGLVQPGRSLRLSCAASGFTFDEYGMHWVRQAPGKGLEWVSGVSWNSGSIAYADSVRGRFTISRDNAKNSLYLQMNSLRAEDTALYYCAKGRLFDVWGQGTTVTVSS chain 2: QSALTQPASVSGSPGQSITISCTGSSSDVGGYNYVSWYQQHPGKAPKLMIYDVTKRPSGVSNRFSGSKSGNTASLTISGLQAEDEADYYGSYSNSNFYVFGTGTKVTVL | 0.000132 s⁻¹ | 0.00137 s⁻¹ | – | –
7 | A11-C07 (antibody) chain 1: EVQLVESGGGLVQPGRSLRLSCAASGFTFDEYGMHWVRQAPGKGLEWVSGVSWNSGSIAYADSVRGRFTISRDNAKNSLYLQMNSLRAEDTALYYCAKGRYSDVWGQGTTVTVSS chain 2: QSALTQPASVSGSPGQSITISCTGSSSDVGGYNYVSWYQQHPGKAPKLMIYDVTKRPSGVSNRFSGSKSGNTASLTISGLQAEDEADYYASYSSNTFYVFGTGTKVTVL | 0.000393 s⁻¹ | 0.00248 s⁻¹ | – | –
8 | A12-E01 (antibody) chain 1: EVQLVESGGGLVQPGRSLRLSCAASGFTFDEYGMHWVRQAPGKGLEWVSGVSWNSGSIAYADSVRGRFTISRDNAKNSLYLQMNSLRAEDTALYYCAKSRSMDVWGQGTTVTVSS chain 2: QSALTQPASVSGSPGQSITISCTGSSSDVGGYNYVSWYQQHPGKAPKLMIYDVTKRPSGVSNRFSGSKSGNTASLTISGLQAEDEADYYGSYSNNNFYVFGTGTKVTVL | 5.99e-05 s⁻¹ | 0.00115 s⁻¹ | – | –
9 | A12-C09 (antibody) chain 1: EVQLVESGGGLVQPGRSLRLSCAASGFTFDEYGMHWVRQAPGKGLEWVSGVSWNSGSIAYADSVRGRFTISRDNAKNSLYLQMNSLRAEDTALYYCAKGRTMDVWGQGTTVTVSS chain 2: QSALTQPASVSGSPGQSITISCTGSSSDVGGYNYVSWYQQHPGKAPKLMIYDVTKRPSGVSNRFSGSKSGNTASLTISGLQAEDEADYYGSYSSNTFYVFGTGTKVTVL | 0.000177 s⁻¹ | 0.000909 s⁻¹ | – | –
10 | 11Hg (antibody) chain 1: QVQLVESGGGVVQPGRSLRLSCAASGFTFSSYAMHWVRQAPGKGLEWVAVISYDGSNKYYADSVKGRFTISRDNSKNTLYLQMNSLRAEDTAVYYCARGSGGRDAFDVWGQGTMITVSS chain 2: DIQMTQSPSTLSASVGDRVTITCRASQSISSRLAWYQQKPGKAPKLLIYKASSLETGVPSRFSGSGSGTEFTLTISSLQPDDFATYYCQQTNSFPLTFGGGTKVEIK | – | – | – | koff (shFcRn [5]): 0.000433 s⁻¹; koff (shFcRn [6]): 0.000434 s⁻¹

The next lines start with results.

Row | koff (shFcRn [1]) | koff (shFcRn [2]) | Kd (shFcRn [3]) | Binder | also measured
11 | – | – | 0.8 nM | HL161-1A (antibody) chain 1: QVQLVQSGGGLVQPGRSLRLSCAASGFSFGEYGMHWVRQAPGKGLEWVSGVSWNSGSIAYADSVRGRFTISRDNSKNSLYLQMNSLRAEDTAVYYCARGRSMDVWGQGTTVTVSS chain 2: NFMLTQPASVSGSPGQTITISCTGSSSDVGGYNYVSWYQQHPGKAPQLIIYDVTKRPSGVSNRFSGSKSGNSASLTISGLQAEDEADYYCSSYSSSTFYVFGTGTKVTVL | –
12 | – | – | 1.9 nM | HL161-6C (antibody) chain 1: QVQLVESGAEVKKPGASVKVSCKASGYTFTSYYMHWVRQAPGQGLEWMGIINPSGGSTSYAQKFQGRVTMTRDTSTSTVYMELSSLRSEDTAVYYCARGGGAFDIWGQGTMVTVSS chain 2: DIQMTQSPSSVSASVGDRVTITCRASQGISNWVAWYQQKPGKAPKLLIYAASSLQSGVPSRFSGSGSGTDFTLTISSLQPEDFAIYYCQQGHSFPYTFGQGTKVEIK | Kd (shFcRn [4]): 6.6 nM
13 | – | – | 0.35 nM | HL161-11H (antibody) chain 1: QMQLVESGGGLVQPGRSLRLSCAASGFTFSSYAMHWVRQAPGKGLEWVAVISYDGSNKYYADSVKGRFTISRDNSKNTLYLQMNSLRSEDTAVYYCSRGSGGRDAFDVWGQGTMITVSS chain 2: DIQMTQSPSTLSASVGDRVTITCRASQSISSRLAWYQQKPGKAPKLLIYKASSLETGVPSRFSGSGSGTEFTLTISSLQPDDFATYYCQQTNSFPLTFGGGTKVEIK | Kd (shFcRn [4]): 0.9 nM; binding result (rat FcRn): no binding; binding result (mouse FcRn): no binding
14 | – | – | 0.16 nM | HL161-11G (antibody) chain 1: QMQLVESGGGVVQPGRSLRLSCVGSGFNFNSYGIHWVRQAPGKGLEWVGGIFYDGSQVKYADSVKGRVSISRDNSKNTAYLQMNSLRAEDTAVYYCARRNLLDYWGQGTVVTVSS chain 2: NFMLTQPASVSGSPGQSITISCTGSSSDVGGYNYVSWYQQHPGKAPQLIIYDVTKRPSGVSNRFSGSKSGNSASLTISGLQAEDEADYYCSSYSSSTFYVFGTGTKVTVL | –
15 | – | – | 3.8 nM | HL161-10E (antibody) chain 1: QVQLVESGGGLVQPGGSLRLSCAASGFRFSNFAMTWVRQAPGKGLEWVSTLSGSGGSIHHADSVKGRFTISRDNSKNTLYLQMNSLRAEDTAVYYCAKGPLRGQPAYLDPWGQGTLVTVSS chain 2: SYELTQPLSVSMSPGQTARITCSGDALSKQYASWYQLKPGQAPVVVMYKDTERPSGIPDRFSGSSSGTTVTLTISGVQAEDEADYYCQSITDKSGTDVIFGGGTKLTVL | Kd (shFcRn [4]): 26 nM
